Source: patent US20210107943A1 (UNIVERSITY OF FLORIDA RESEARCH FOUNDATION, published 2021)
Blank lines part the entries; values can stand above or below the binder they belong to.

B1: mCATCH(+) peptide, Ac-QQKPKPKPKQQ-Am (peptide)
peptide: Ac-QQKPKPKPKQQ-NH2
notes: Mutant with proline in place of the phenylalanine residues; also called mutant of CATCH(+)

How the values were obtained:
[1] = molecular target: T1, mCATCH(-) peptide, Ac-EQEPEPEPEQE-Am; assay: ThT fluorimetry, kinetic
T1 construct: Mutant with proline in place of the phenylalanine residues; also called mutant of CATCH(-)
T1 peptide: Ac-EQEPEPEPEQE-NH2

[2] = molecular target: the molecule itself; assay: ThT fluorescence microscopy and the data taken together (self-assembly)
Protocol: For samples containing only CATCH peptides, ThT was mixed with samples at a 1:1 (v/v) ratio, 5 μL of each sample was placed onto a glass microscope slide, samples were covered with a cover slip, and samples were viewed using a GFP filter set. For samples containing CATCH peptides and CATCH(−)GFP, 0.75 μM CATCH(−)GFP was mixed with 200 μM CATCH(+) and 187.5 μM CATCH(−), unless otherwise specified. 5 μL of each sample was placed onto a glass microscope slide, samples were covered with a cover slip, and samples were viewed using a GFP filter set. For all samples, images were collected using an exposure time of 4 s.

[3] = molecular target: B1; assay: ThT fluorimetry, equimolar mixture
Protocol: (§1) Thioflavin T (ThT) Assay. A ThT stock solution containing 0.8 mg/mL of thioflavin T (Acros) in 1× phosphate-buffered saline (PBS) (137 mM NaCl, 2.7 mM, KCl, 10 mM Na₂HPO₄ and 1.8 mM KH₂PO₄, pH 7.4) was filtered through a 0.22 μm syringe filter (Millex), and further diluted 1:10 with 1× PBS to create a working solution. Peptide samples were mixed with the ThT working solution at a 1:10 (v/v) ratio, added to a black 96-well plate (Corning), and analyzed with a Molecular Devices SpectraMax M3 spectrophotometer (excitation 450, emission 482 nm). All samples were run in triplicate, with the mean and standard deviation of these samples reported.
(§2) Nanofiber preparation. Stock solutions of CATCH(−) and CATCH(+) were prepared by dissolving lyophilized peptides in 1× PBS to a final concentration of 500 μM. Peptide concentration was confirmed using Phe absorbance (λ=260 nm). CATCH peptides were then mixed at a 1:1 (v/v) ratio and incubated overnight for formation of nanofibers, unless stated otherwise.

[4] = molecular target: the molecule itself; assay: TEM and circular dichroism of the peptide alone (self-assembly)
[5] = molecular target: T1, mCATCH(-) peptide, Ac-EQEPEPEPEQE-Am; assay: ThT fluorimetry, equimolar mixture
Protocol: as §1, §2

Binder: B1
- binding result [1]: no binding

- binding result [3]: no binding
B2: CATCH(-) peptide, Ac-EQEFEFEFEQE-Am (peptide)
peptide: Ac-EQEFEFEFEQE-NH2
notes: also called CATCH (6-); negative peptide segment
- binding result [2]: no binding

- binding result [5]: no binding
B3: CATCH(+) peptide, Ac-QQKFKFKFKQQ-Am (peptide)
peptide: Ac-QQKFKFKFKQQ-NH2
notes: also called CATCH (4+); positive peptide segment
- binding result [4]: no binding
